Test results reported in patent publication US20230111279A1 (Takeda / Millennium, published 2023).

T1: Clec12A-His protein, Clec12A (H65-A265-WT-EOm-NIgKss-6His) (human, UniProt Q5QGZ9 65-265)
T1 construct: The protein was biotinylated for the ELISA binning assay; also called soluble Clec12A-His; soluble Clec12A
T1 sequence: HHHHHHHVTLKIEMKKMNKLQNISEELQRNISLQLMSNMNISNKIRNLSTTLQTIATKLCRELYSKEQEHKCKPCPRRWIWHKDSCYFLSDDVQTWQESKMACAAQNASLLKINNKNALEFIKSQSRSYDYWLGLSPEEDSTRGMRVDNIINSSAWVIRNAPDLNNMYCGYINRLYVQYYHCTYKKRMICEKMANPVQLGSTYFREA


Key:
[1] = target: T1, Clec12A-His protein, Clec12A …; test: Biacore SPR; antibody captured on anti-mouse IgG chip, soluble Clec12A-His at 100 nM in solution
Description: (§1) Briefly, […] anti-Clec12A antibodies derived from and produced in hybridoma were tested for their binding affinity on soluble Clec12A in a Biacore SPR system. Briefly, the antibodies were immobilized on anti-mouse IgG sensor chips and bound to soluble Clec12A-His protein (Clec12A extracellular domains fused to 6×His tag (SEQ ID NO: 79)) at 100 nM in the solution phase. The resulting Biacore traces are as shown in […]

[2] = target: T1, Clec12A-His protein, Clec12A …; test: Biacore SPR; antibody captured on anti-mouse IgG chip, soluble Clec12A-His at 100 nM in solution; monovalent
Description: as §1

Binder | koff [1] | kon [1] | Kd [2]
anti-Clec12A antibody B (antibody, V domains shown, Hybridoma-produced IgG; also called Clone B) VH: QVQLVESGGGVVQPGRSLRLSCAASGFTFSSYGMHWVRQAPGKGLEWVAVISYDGSDKYYVDSVKGRFTISRDNSKNTLYLHMNSLRAEDTAVYYCARDKGYYFDYWGQGTLVTVSS VL: EIVMTQSPATLSLSPGERATLSCRASQSVGNRYLSWYQQKPGQAPRLLIYGASTRATGIPARFSGSGSGTDFTLTISSLQPEDFAVYYCQQDYNLPLTFGGGTKVEIK | 0.000666 s⁻¹ | 176000 M⁻¹ s⁻¹ | 3.78 nM
anti-Clec12A antibody C (antibody, V domains shown, Hybridoma-produced IgG; also called Clone C) VH: QVQLVESGGGVVQPGRSLRLSCAASGFTFSSYGMHWVRQAPGKGLEWVAVISYDGSDKYSADSVKGRFNISRDNSKNTLYLQMNSLRAEDTAVYYCARDGSRYFDYWGQGTLVTVSS VL: EIFMTQSPATLSLSPGERATLSCRASQSVHSKYLSWYQQKPGQAPSLLIYGASTRATGIPARFSGSGSGTDFTLTISSLQPEDFAVYYCQQDYNLPITFGQGTRLEIK | < 1e-05 s⁻¹ | 182000 M⁻¹ s⁻¹ | < 0.0549 nM
anti-Clec12A antibody D (antibody, V domains shown, Hybridoma-produced IgG; also called Clone D; anti-Clec12A Clone D antibody) VH: QLQLQESGPGLVKPSETLSLTCTVSGGSISSSTYYWGWIRQPPRKGLEWIGSTHYRGSTYYNPSLKSRVTISVDTSKNQFSLKVSSVTAADTAVYYCARELTGEVFDYWGQGTLVTVSS VL: not shown | – | – | 1.99 nM
anti-Clec12A antibody A (antibody, V domains shown, Described as a human anti-Clec12A antibody derived from and produced in hybridoma, captured on anti-mouse IgG sensor chips; also called Clone A) VH: QVQLQESGPGLVKPSETLSLTCTVSGGSISTYYWSWIRQPPGKGLEWIGYIYYSGSTKYNPSLKSRVTISVDTSKNLFSLKLSSVTAADTAVYYCAREDYYGSGSPFDYWGQGTLVTVSS VL: IQMTQSPSSLSASVGDRVTITCRASQGIRYDLGWYQQKPGKAPKLLIYAASSLQSGVPSRFSGSGSGTDFTLTISSLQPEDFATYYCLQDYNFPRTFGQGTKVEIK | 0.0132 s⁻¹ | 4.62e+06 M⁻¹ s⁻¹ | 2.87 nM
